Source: article PMC3510498, “RecOR complex including RecR N-N dimer and RecO monomer displays a high affinity for ssDNA”

Key:
TTERecR = TTERecR (Thermoanaerobacter tengcongensis MB4, UniProt Q8RDI4 1-199); assay: SPR; SPR: 20 mM HEPES pH 7.4, 200 mM NaCl, 0.005% Tween 20, 25 C, SA chip; EMSA: 20 mM HEPES pH 7.4, 200 mM NaCl, 25 C, 30 min, 2 uM DNA
TTERecR;TTERecO = TTERecR;TTERecO (Thermoanaerobacter tengcongensis …, UniProt Q8RDI4;Q8RB48 1-199;1-247, |); assay: as above
TTERecR P16G;TTERecO = TTERecR P16G;TTERecO (Thermoanaerobacter tengcongensis …, UniProt Q8RDI4;Q8RB48 1-199;1-247, P19G|); assay: SPR; as strong as RecOR; SPR: 20 mM HEPES pH 7.4, 200 mM NaCl, 0.005% Tween 20, 25 C, SA chip; EMSA: 20 mM HEPES pH 7.4, 200 mM NaCl, 25 C, 30 min, 2 uM DNA
TTERecR R25G;TTERecO = TTERecR R25G;TTERecO (Thermoanaerobacter tengcongensis …, UniProt Q8RDI4;Q8RB48 1-199;1-247, R28G|); assay: as above
TTERecO = TTERecO (Thermoanaerobacter tengcongensis MB4, UniProt Q8RB48 1-247); assay: EMSA; 10 uM protein, 2 uM DNA; SPR: 20 mM HEPES pH 7.4, 200 mM NaCl, 0.005% Tween 20, 25 C, SA chip; EMSA: 20 mM HEPES pH 7.4, 200 mM NaCl, 25 C, 30 min, 2 uM DNA; conditions: protein: recombinant; tags: N-terminal His6; label: 5' biotin (SPR)
TTERecR R25G = TTERecR R25G (Thermoanaerobacter tengcongensis MB4, UniProt Q8RDI4 1-199, R28G); assay: SPR; SPR: 20 mM HEPES pH 7.4, 200 mM NaCl, 0.005% Tween 20, 25 C, SA chip; EMSA: 20 mM HEPES pH 7.4, 200 mM NaCl, 25 C, 30 min, 2 uM DNA
TTERecR P16G = TTERecR P16G (Thermoanaerobacter tengcongensis MB4, UniProt Q8RDI4 1-199, P19G); assay: as above

B1: 60 mer ssDNA (ssDNA)
DNA: ATAAATATCGATGTTAAAGAGGATAAGATTTATAAAATAGCTTCTTATTTTCCTGTAGTA
binding result (TTERecR): no binding | Kd (TTERecR;TTERecO): 0.931 nM | binding result (TTERecR P16G;TTERecO): binds | binding result (TTERecR R25G;TTERecO): binds | binding result (TTERecO): no binding

B2: 60 mer dsDNA (dsDNA)
DNA 1: B1 DNA
DNA 2: TACTACAGGAAAATAAGAAGCTATTTTATAAATCTTATCCTCTTTAACATCGATATTTAT
Kd (TTERecR): 24800 nM | binding result (TTERecR R25G): no binding | Kd (TTERecR;TTERecO): 26.4 nM | binding result (TTERecR P16G): no binding | binding result (TTERecR P16G;TTERecO): binds | binding result (TTERecR R25G;TTERecO): binds
